Laboratory results: patent publication US20250241939A1, “NUCLEIC ACID-BASED DELIVERY SYSTEMS AND USES THEREOF” (Kodikaz Therapeutic Solutions, Inc., priority 2022, published 2025)

B1: 33 (nucleic acid, listed as Homo sapiens)
chain: TGTGTTAGTCAGGATAGGCTAACCTCTGTAACACACAACCCCAATTTTTCAGTGGCTCAGAACAATAGGAGTTTCTTTCTTACTCATGTAAAGTCCAGGTGTGGCAGAAACTTGCGGGGGAGAAAGTCTACTCCACAGCATCACTCAGGGACCCAGGCTCCTGCCTTACGGTGGTTCCGCCATTTTCCAGGGCCTCGGAGTCCTCCATCCCATCTCCTCCATTCAGCTGGTGGATGTGGGAGGAGAGCGTGTATGAAAGACCACACAGAAGCTTTTTTTGGGCCAGGCTTTGAGACGGCGCACATCAGTTTCGCTCTTGTTGCCCAGGCTGGAGTGCAATGGCGCAATCTCGGCTCACCGCAAAAGACACTGGGAAATTTGGTCTGGCCATGTGTCTAGGAAGCAGAGGAGATGGGGTTTCATAAACTCCTGAACTCTCTCTACCACG
B2: 32 (nucleic acid, listed as Homo sapiens)
chain: CTCCATGTTCTGACCTCAGGTGATCTGCCCGCCTCCGCCTCCCATAAGTTCCTTCTGCACCTATTCCATTCCATCTGCAATGTCATCCTGGCCAACCTGTGAATGGGTATAGCAGGATAGTAAGTTAGTCCCAGTGTTTAGGCAGACTCCATAGACCAGATTTAACGTGTTTGTATAAACCGCATGGCTCGCTCTTACTCAGCCTTCGGGTCGGCCTTAAGATACACAGTTTTAAGAAAAGCATTGTCTTCACTCTTAGTGTAGATCAGGTCCTCCTCNCCCCCANCACGTTATGTCCCTGTCATTGAACATTATACTTTTATGAAGAATTGTGAGCTGTCTGAGATTTTACCTTACTTGCAAACTAACAAGTGGGCCTGCCATAGTTTCATGTCTGGCAGAAGACTCCAACAGGTCAGAGATTTTCATCTGTCTTGTTCACTATTGTCTACATAGTGCCTGGAAAAATGCCTGGCACACAGTAAACCCTCAATCAGTATTTTATGAATGAGTGAAC
modifications: misc_difference 279 a, c, t, g, unknown or other; misc_difference 286 a, c, t, g, unknown or other
B3: 39 (nucleic acid, listed as Homo sapiens)
chain: GTATTTAGATTCCCAGACTTTGGAGCCAGATCGGCTGAGTTCAAACCCTGTCTGTGCAACTATCAGCTGTTCAGCTGTGTGACCTTGGGCAAGTTACTTAACCTCTCTGAACCCTGATTCCTCCTGCAAACGGTGGGAAAAATAATAGAACCAATCTCTCTGGGTTGCTGTAAGGATTAAATTAATTTACAGTGCATGTAACATGCTTACAGCAATGTCTGGCACACAGTAAGCACTAAGTATTTGTTGTTATTTGTCATC
B4: 35 (nucleic acid, listed as Homo sapiens)
chain: AAGATGGGGAGGATGGTGGTGGAGCAGGCTGGGGAGATGAGGAGCTTGAGGGGCCTAGGAGCTAACCACCCATTCACTGTTTATGGGTGGGGTGGCTCCGGGCAGGTGGCCTGACCCCTCTAAACCTCAGTTTCCCCATCTGTAAAATGGGAGTAATTGTACCTGCCTCACGGGCATGTAGCAGGTGGGAGAGAGAGTAATACGGGCAAGACGTCTAGTGCAGTGGCTGGAACATAACAAGCACCCAGCAAGTGGTGGCCCCATTGCT
B5: 47 (nucleic acid, listed as Homo sapiens)
chain: AGGCCTGGCACAGTGGCTCATGCGTGTAATCCCAACACTGCGGGAAGCTGAGGCAGGAGGATCACTTGAGCCCAGGAGCTCATGGCTGTAGTGAGCTGTGATTGCACCACTGCACTGCACTCCAGCCTGGGCAACAGCAAGACCCTGTCTCCAAAAAAAAAAAACAAAACAAATTAAT
B6: 49 (nucleic acid, listed as Homo sapiens)
chain: CTTTAACCTCCTTGTTACGTTTGTCTCTTCCAGAATCGAAGCTGTAAAACTACAAATGGTTCTTCAAATGGAGCCCCAGATGCAGTCCATGACTAAGATCTACCGCGGACCCCTGGACTGGCCTGCTAGCCCATGCTCCAATGTTGATGACATTGAAGGCACCCCTCCCAAGGAAATCTCAACTGCACGACCCCTACTATGCCCCAATTCAGCATGAAGCAGTTAAGAGCGGTTGTCAGCCAACCTCCCCAACAGCACTTGGGTTTTCCTGTTGAGAGGTGGGACTGAGAGA
B7: 46 (nucleic acid, listed as Homo sapiens)
chain: CACCCAAGTCACCTCTTGAATGCTTTGCTGCTTAGACATTTCTTCTGCCAGATACCCTAAATAATCTCTCTCAAGTTCAAAGTTCCACAAATCTCTAGGGCAGGGGCAAAATGCCACCAGTCTGTTTGCTAAAACATAACAAGAGTCATCTTTGCTCCAGTTCCCAACAAATTCCTTATCTCCATCTGAGACCACCTTATCCTGGATTTCATTGTCCATATCATTATCAGCATTTTGGTCAAAGCCACTCCACAAGTCCCTAGGAAGTTCCAAACTTTCCCACATTTTCCTGTCTTCTTCTGAGGCCTCCAACCTATTCCACCCTCTGTCTGTTACCCAGTTCCAAAGTTGCTTCTACATTTTCAGGTGTCTTTTCAGCAGTGCCACACTCTACTGGTACTAATTTAC
B8: 41 (nucleic acid, listed as Homo sapiens)
chain: CCCTTGAACTTATTAAAATCTTTTATAATGTAGTACATTTACTGACTGCTTTCAGGCAGGCATGAGGACCTTTCACTCCATTTGCTCCATTGTCCCTTTTGAAGGATTCTTGTCATATATATAAAACCTCTTAAGACATAATGTTATTGTTTTATATACTCTTTAATCACCTACATCTTTGCACTTTAATATTTCCTAAATTTGCATTCTTCTCTCTGGGACTAGAAGACCTCAGCTTAGCGGTTCTTTTCATGTGGGCCTGAGAAATTTTCTCACTTTTTGTTTCACTTTCATTCTTGAAGGAACGTTTCACTGGTTATAGGATGCAAGGTTAGCGGTTATTCTCTTCTGCATCTTCCCACTGCATTGTCTTCTGAATCTTATAATTTATGTAAAAACATTAGTTGTCTGTCTTCCCATTGCTTCTGTGAAAATAATGCATGTTTTCCTCTGGTTGTTTTTGACATTTTCTTTGTGTCTGTTTCTCAGCAATTTTTCCATGATATATGCTCGGAGCGGGCTTACTTATCCTACACCCTGAATCTGTAGCTTGACGTCTTTTTGTCAACTTTGGAAAGTTTTTGGCATTATCTCATCAAATATTTCCCCTGTCCTGTTCTTGCTCTTCTCTTGCTGGAGTGCAGTCGTTCCTGTATTAGACCTTTGCATCATGTTCTAGGTATTTTTATCT
B9: 30 (nucleic acid, listed as Homo sapiens)
chain: AATATTAATTTGGGCTCTCCAGAGAAACAGAACCAATAGATTACACATAGATATATAGAAAGACAGTTATTACAAGGAATTGGCTCACAGGATTATGTAGGCTGAGAAGTCCCATGACCTGCCGTCTGCAAGCTGGAGACCCAGGAAAGCCGGTGGTGTAGTTCCAGTCCGAGTTGGGAGGTCTGAGAATCGGGAGAGCTGACAGAGTAAGCTCTAGTTGCAGCCTGGAGTCCAGAGGGCAAAGAACACCTATGTCCCATCTCAAGCACGGTCAGGCGTCCCAGCTCAAGCAGAGAGAAAGAAGACTTTCCTGCTCAGCCTCCTTGCTCTAAGCAGCCTCCCGACGGATTGGATGAAGCTCACCCACGCTGGGGAGGGCAGCCACCTTCACTCAGTCCACCAATTCAAATGCTAATCTCATCCAGAAACACCCTCACAGGCACACCCAGAAATAATGTTTAGCCACATATCTGGGCATCCTGAGGACCAGTCAAATTGACTCATAAGTCTCACCATCATA

System: MIA (pancreatic cancer) cell genome
Experiment: ctDNA coculture with MIA cells, whole genome sequencing: genomic insertion sites, transposons at insertion points and SNVs (pancreatic cancer)
Type: cell-based, human
Conditions: for blast orientation / blast chr / Transposon orientation / Distance from insertion / Location relative to insertion: TABLE 8, pancreatic cancer co-culture; for blast orientation: BLAST alignment orientation; for blast chr: chromosome with the longest result for BLAST analysis of the full contig; for Transposon orientation: compared with the human reference genome; for Distance from insertion: distance between insertion and the transposon (0 if they overlap); for Location relative to insertion: location of the transposon relative to the insertion on the contig; for Location / No. SNP / Chr location / Gene: TABLE 4; for Location: identified genomic insertion site, chromosome; for No. SNP: number of single nucleotide variants (SNVs or SNPs) identified, polynucleotides for pancreatic cancer cells; for Chr location: position on the chromosome of the identified genomic insertion site; for Gene: gene at identified genomic insertion site
Experimental: The integration of ctDNAs into the host cell genome was evaluated. ctDNA was extracted from patient plasma, cultured for 24 hours with cells of a matching cancer cell type or non-matching cancer cell type, and whole genome sequencing was performed. The cell lines used were MM1s (multiple myeloma, MM) and MIA (pancreatic cancer, PC).
The sequence data was used to reconstruct genomic contigs for each experimental condition by de novo assembly. […] Coculture contigs carrying a ctDNA insertion were identified using NucDiff analysis.
Experiments were designed to identify the presence of transposons in ctDNA fragments. To map ctDNA genomic junctions more precisely, a PACBIO probe was ligated to multiple myeloma and pancreatic cancer ctDNA samples to label their 5′ and 3′ ends. Whole-genome sequencing of DNA from cells with ctDNA genomic integration was done using the Illumina platform. De novo assembly was performed on the sequencing output. ctDNA contigs containing PACBIO adaptor were then matched to those contigs containing inserted ctDNA sequences identified in the coculture experiments. Transposable element on ctDNA sequences at the insertion points (<100 nucleotides from transition point between cell and ctDNA) were detected and classified using RepeatMaster.
A search was conducted for transposons that preferentially target cells of matching tumor types. The lists of transposons identified at the ctDNA insertion point in matching and mismatched coculture conditions were compared (e.g., MM ctDNA with MM cells or PC cells). Transposons were selected that were uniquely or preferentially inserted in the matching conditions.
Whole-genome sequencing and Whole exon sequencing: ctDNA was extracted from 10 MM and 10 PC patients. DNA from CD138 (+) cells and from cell lines used in in vitro experiments (MM1s and MIA) was extracted using Blood & Cell Culture DNA Mini Kit (Quiagen, MD). DNA from […] paraffin embedded pancreatic tumors was obtained using QIAamp DNA FFPE Tissue Kit Print (Qiagen, MD).
After extraction, ctDNA was ligated to the PACBIO adaptor ([…]) using the ABM DNA Library Prep Kit for Illumina Sequencing (Applied Biological Materials Inc. Canada). PACBio-labeled ctDNA and regular ctDNA were subjected to standard methods for library preparation and sequencing using Illumina and Agilent protocols, respectively. Applied Biological Materials Inc. prepared the libraries and performed whole-exon and -genome sequencing.
Identification of transposable elements and its nucleotide variants: To determine the locations of transposable-like regions in contigs, sequences were analyzed and transposable elements (TEs) were identified and classified using RepeatMasker version 4.1.0 and the Dfam database (release 3.1) of repetitive DNA families was used as a reference for identifying repeats in ctDNA contig sequences that were part of qualifying structural events. For each repeat sequence identified by RepeatMasker, the overall frequency of the specific repeat (e.g., for AluSp or L1) and their parent class (e.g., SINE) was computed.
Once the TE elements were identified, hit repeats/TE sequences, unique contigs for all samples, and insertion sequence were aligned with MAFFT software version. Mutations in TE sequences were identified by comparison of nucleotides at each position in the multiple sequence alignment with the “Biostrings” R package (version 4.1). A position was considered to contain mutation if the substitution was present in contigs of all samples.

| Molecule | blast orientation | blast chr | Transposon orientation | Distance from insertion | Location relative to insertion | Location | No. SNP | Chr location | Gene |
| --- | --- | --- | --- | --- | --- | --- | --- | --- | --- |
| L1ME4b | Plus/Plus | chr7 | direct | +1930 | right |  |  |  |  |
| Mam_R4 | Plus/Plus | chr9 | direct | 0 | intersect |  |  |  |  |
| B1 |  |  |  |  |  | Chr21 | 4 |  |  |
| B2 |  |  |  |  |  | Chr21 | 5 |  |  |
| B3 |  |  |  |  |  | Chr 2 | 1 | 27942978 |  |
| B4 |  |  |  |  |  | Chr14 | 0 |  |  |
| B5 |  |  |  |  |  | Chr 10 | 4 | 14247220 | LINE1/Alu |
| B6 |  |  |  |  |  | Chr 6 | 5 | 143409567 | AIG1 |
| B7 |  |  |  |  |  | Chr 5 | 2 | 107782747 |  |
| B8 |  |  |  |  |  | Chr 7 | 1 | 50660129 | GRB10 |
| B9 |  |  |  |  |  | Chr3 | 1 |  | RAB7A |
